In the supplement of paper PMC10567573:

B1: ATE1 (parent)
chain: YGSFHQQYWLDGKIIAVGVIDILP
B2: KCNA1 (parent)
chain: LKASMRELGLLIFFLFIGVILFSS

Variants of: B1
Assay: protein stability index of a GFP-peptide fusion (GPS, HEK-293T) (PSI 1-6); higher = more stable
Conditions: c terminus: a fixed tail appended
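Also: lentivirally expressed fusions sorted by FACS into six bins by GFP to DsRed ratio, PSI derived from sequencing read proportions per bin multiplied by bin number.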

Going from YGSFHQQYWLDGKIIAVGVPDILP to YGSFHQQYWLDGKIIAVGVRDILP, the protein stability index falls from 2.53 to 2.48.

First: YGSFHQQYWLDGKIIAVGVSDILP
Second: YGSFHQQYWLDGKIIAVGVWDILP
The protein stability index of the first is higher: 2.38 for the first, 1.38 for the second.

Going from YGSFHQQYWLDGKIIAVGVYDILP to YGSFHQQYWLDGKIIAVGVICILP, the protein stability index rises from 1.81 to 3.23.

First: YGSFHQQYWLDGKIIAVGVIEILP
Second: YGSFHQQYWLDGKIIAVGVIFILP
The protein stability index of the first is lower: 3.01 for the first, 4.18 for the second.

First: YGSFHQQYWLDGKIIAVGVIIILP
Second: YGSFHQQYWLDGKIIAVGVIMILP
The protein stability index of the first is higher: 2.97 for the first, 1.81 for the second.

First: YGSFHQQYWLDGKIIAVGVINILP
Second: YGSFHQQYWLDGKIIAVGVIPILP
The protein stability index of the first is lower: 2.85 for the first, 2.97 for the second.

Compared with YGSFHQQYWLDGKIIAVGVIQILP, YGSFHQQYWLDGKIIAVGVIRILP is higher in protein stability index: 3.26 for the first, 3.36 for the second.

Compared with YGSFHQQYWLDGKIIAVGVISILP, YGSFHQQYWLDGKIIAVGVITILP is lower in protein stability index: 3.23 for the first, 3 for the second.

First: YGSFHQQYWLDGKIIAVGVIVILP
Second: YGSFHQQYWLDGKIIAVGVIWILP
The protein stability index of the first is lower: 4.01 for the first, 4.17 for the second.

Going from YGSFHQQYWLDGKIIAVGVIYILP to YGSFHQQYWLDGKIIAVGVIDALP, the protein stability index rises from 1.97 to 3.85.

Compared with YGSFHQQYWLDGKIIAVGVIDDLP, YGSFHQQYWLDGKIIAVGVIDELP is higher in protein stability index: 2.81 for the first, 3.75 for the second.

First: YGSFHQQYWLDGKIIAVGVIDFLP
Second: YGSFHQQYWLDGKIIAVGVIDHLP
The protein stability index of the first is higher: 2.93 for the first, 2.9 for the second.

Going from YGSFHQQYWLDGKIIAVGVIDKLP to YGSFHQQYWLDGKIIAVGVIDMLP, the protein stability index rises from 1.43 to 3.15.

First: YGSFHQQYWLDGKIIAVGVIDPLP
Second: YGSFHQQYWLDGKIIAVGVIDQLP
The protein stability index of the first is higher: 3.32 for the first, 2.42 for the second.

Compared with YGSFHQQYWLDGKIIAVGVIDRLP, YGSFHQQYWLDGKIIAVGVIDSLP is higher in protein stability index: 2.18 for the first, 3.81 for the second.

First: YGSFHQQYWLDGKIIAVGVIDTLP
Second: YGSFHQQYWLDGKIIAVGVIDVLP
The protein stability index of the first is lower: 1.74 for the first, 2.14 for the second.

First: YGSFHQQYWLDGKIIAVGVIDWLP
Second: YGSFHQQYWLDGKIIAVGVIDYLP
The protein stability index of the first is higher: 2.77 for the first, 2.23 for the second.

Compared with YGSFHQQYWLDGKIIAVGVIDIAP, YGSFHQQYWLDGKIIAVGVIDIDP is lower in protein stability index: 4.34 for the first, 2.88 for the second.

Going from YGSFHQQYWLDGKIIAVGVIDIEP to YGSFHQQYWLDGKIIAVGVIDIGP, the protein stability index rises from 1.4 to 2.94.

Going from YGSFHQQYWLDGKIIAVGVIDIHP to YGSFHQQYWLDGKIIAVGVIDIIP, the protein stability index rises from 2 to 2.34.

First: YGSFHQQYWLDGKIIAVGVIDIKP
Second: YGSFHQQYWLDGKIIAVGVIDIMP
The protein stability index of the first is higher: 2.49 for the first, 1.78 for the second.

Going from YGSFHQQYWLDGKIIAVGVIDIPP to YGSFHQQYWLDGKIIAVGVIDIQP, the protein stability index rises from 2.72 to 3.64.

First: YGSFHQQYWLDGKIIAVGVIDISP
Second: YGSFHQQYWLDGKIIAVGVIDITP
The protein stability index of the first is higher: 2.66 for the first, 2.53 for the second.

First: YGSFHQQYWLDGKIIAVGVIDILA
Second: YGSFHQQYWLDGKIIAVGVIDILF
The protein stability index of the first is higher: 2.06 for the first, 1.69 for the second.

Going from YGSFHQQYWLDGKIIAVGVIDILG to YGSFHQQYWLDGKIIAVGVIDILI, the protein stability index falls from 3.18 to 2.73.

First: YGSFHQQYWLDGKIIAVGVIDILK
Second: YGSFHQQYWLDGKIIAVGVIDILL
The protein stability index of the first is lower: 1.04 for the first, 4.25 for the second.

Compared with YGSFHQQYWLDGKIIAVGVIDILM, YGSFHQQYWLDGKIIAVGVIDILQ is higher in protein stability index: 2.18 for the first, 2.51 for the second.

First: YGSFHQQYWLDGKIIAVGVIDILS
Second: YGSFHQQYWLDGKIIAVGVIDILV
The protein stability index of the first is lower: 1.79 for the first, 3.01 for the second.

YGSFHQQYWLDGKIIAVGVIDILW showed a protein stability index of 3.2.

Variants of: B2
Assay: as above
Conditions: c terminus: a fixed tail appended

First: AKASMRELGLLIFFLFIGVILFSS
Second: CKASMRELGLLIFFLFIGVILFSS
The protein stability index of the first is lower: 2.05 for the first, 2.3 for the second.

Compared with DKASMRELGLLIFFLFIGVILFSS, EKASMRELGLLIFFLFIGVILFSS is lower in protein stability index: 3.09 for the first, 1.93 for the second.

First: FKASMRELGLLIFFLFIGVILFSS
Second: GKASMRELGLLIFFLFIGVILFSS
The protein stability index of the first is lower: 2.12 for the first, 3 for the second.

First: HKASMRELGLLIFFLFIGVILFSS
Second: IKASMRELGLLIFFLFIGVILFSS
The protein stability index of the first is higher: 3.89 for the first, 2.29 for the second.

Compared with KKASMRELGLLIFFLFIGVILFSS, MKASMRELGLLIFFLFIGVILFSS is higher in protein stability index: 1.58 for the first, 2.27 for the second.

Going from NKASMRELGLLIFFLFIGVILFSS to PKASMRELGLLIFFLFIGVILFSS, the protein stability index falls from 2.84 to 1.82.

Going from QKASMRELGLLIFFLFIGVILFSS to RKASMRELGLLIFFLFIGVILFSS, the protein stability index falls from 2.04 to 1.4.

Going from SKASMRELGLLIFFLFIGVILFSS to TKASMRELGLLIFFLFIGVILFSS, the protein stability index rises from 1.05 to 1.84.

Going from VKASMRELGLLIFFLFIGVILFSS to WKASMRELGLLIFFLFIGVILFSS, the protein stability index falls from 1.88 to 1.56.

Going from YKASMRELGLLIFFLFIGVILFSS to LAASMRELGLLIFFLFIGVILFSS, the protein stability index rises from 2.76 to 3.41.

First: LCASMRELGLLIFFLFIGVILFSS
Second: LDASMRELGLLIFFLFIGVILFSS
The protein stability index of the first is lower: 1.28 for the first, 2.89 for the second.

First: LEASMRELGLLIFFLFIGVILFSS
Second: LFASMRELGLLIFFLFIGVILFSS
The protein stability index of the first is higher: 3.11 for the first, 2 for the second.

Compared with LGASMRELGLLIFFLFIGVILFSS, LHASMRELGLLIFFLFIGVILFSS is higher in protein stability index: 2.49 for the first, 2.54 for the second.

Going from LIASMRELGLLIFFLFIGVILFSS to LLASMRELGLLIFFLFIGVILFSS, the protein stability index falls from 2.79 to 1.81.

Going from LMASMRELGLLIFFLFIGVILFSS to LNASMRELGLLIFFLFIGVILFSS, the protein stability index rises from 2.15 to 2.18.

Compared with LPASMRELGLLIFFLFIGVILFSS, LQASMRELGLLIFFLFIGVILFSS is higher in protein stability index: 2.02 for the first, 3.04 for the second.

Compared with LRASMRELGLLIFFLFIGVILFSS, LSASMRELGLLIFFLFIGVILFSS is lower in protein stability index: 2.32 for the first, 2.19 for the second.

First: LTASMRELGLLIFFLFIGVILFSS
Second: LVASMRELGLLIFFLFIGVILFSS
The protein stability index of the first is lower: 2.01 for the first, 3.35 for the second.

LWASMRELGLLIFFLFIGVILFSS showed a protein stability index of 2.4.
